Five molecules from patent US20250277048A1 (Regeneron, published 2025) can be followed below.

For experiment [1], the target named is T1, human CD40 (hCD40) expressed on cells (human, UniProt P25942 21-277).
T1 construct: whole, on cells; one entry for transfected and endogenous human CD40; the cell line is named under assay or readout; also called HEK293/D9/hCD40; Ramos 2G6.4C10
The experiment is described as follows: flow cytometry, Ramos 2G6.4C10 cells. The procedure: Cells were washed with 2% FBS (w/v) in 1×PBS (flow cytometry staining buffer) by centrifugation with benchtop Centrifuge 5810R (Eppendorf®, Hamburg, Germany). Cells were incubated for 30 minutes at 4° C. with serial dilutions of following antibodies ranging from 1.7 pM to 100 nM in flow cytometry staining buffer (1) anti-CD40×CD40 bispecific antibodies, or (2) parental anti-CD40 antibodies (bivalent antibodies comprising 2 fragment antigen-binding [Fab] arms identical to one of the two anti-CD40 Fab of bispecific anti-CD40×CD40 antibodies), or (3) anti-CD40×Irrelevant antibodies (bivalent antibodies that incorporate one Fab arm identical to one of anti-CD40 Fab of anti-CD40×CD40 antibodies and another Fab arm specific to an irrelevant antigen, i.e. birch pollen main allergen Bet v1), or (4) human IgG4 isotype control antibodies with Fc mutation. After washing, cell bound antibodies were detected with 2.5 μg/ml Allophycocyanin (APC)-conjugated goat anti-human IgG antibody specific for the Fcγ fragment (Jackson Immunoresearch, West Grove, PA) for 30 minutes at 4° C. Cells were washed and subsequently fixed with 50% solution of Cytofix™ Fixation Buffer (BD, Franklin Lakes, NJ) in flow cytometry staining buffer for 20 minutes at room temperature. Cells were washed and resuspended in flow cytometry staining buffer and stored at 4° C. for downstream flow cytometry analysis.
Acquisition of fluorescence signals were recorded on the ZE5 Cell Analyzer (Bio-Rad, Hercules, CA) according to the manufacturer's recommended procedure and flow cytometry data analysis was performed using the open-source R packages flowCore, flowStats, flowDensity, ggCyto, and flowAI. Multiplexed samples were deconvoluted and individual cell populations were identified based on their unique CellTrace™ fluorescence signature. APC Median Fluorescence intensity (MFI) was recorded to indicate the binding intensity of each antibody over a range of concentrations. Antibodies with MFI greater than 1500 at the highest tested concentration (100 nM) were classified as specific binders. In addition, direct binding signals (APC MFI) were analyzed as a function of the antibody concentration and data were fitted with a sigmoidal (four-parameter logistic) dose-response model using GraphPad Prism™ software.

In experiment [2] the target is T2, human CD40 extracellular domain expressed with a C-terminal myc-myc-hexahistidine tag (human).
T2 construct: also called hCD40-MMH; hCD40-mmH
The experiment is described as follows: ELISA blocking of 40 nM hCD40-mmH binding to 9His-hCD40L. An excerpt: An ELISA-based blocking assay was developed to determine the ability of C40×CD40 bispecific antibodies to block the binding of the hCD40 monomer to plate-coated hCD40L. The recombinant human CD40-mmH protein (hCD40-MMH; REGN3094; SEQ ID NO: 53) used in the experiments comprises a portion of the human CD40 extracellular domain (amino acids P20-R193) fused to 2×Myc peptide and 6×histadine (SEQ ID NO: 1110) at the C-terminus of human CD40, and the human CD40L (accession #NM_000074.2) with amino acids E108-L261 of the extracellular domain with 9×His-2×(SGGG)-IGER at the N-terminus (9His-hCD40L) was commercially obtained from Biolegend.
In the blocking assay, 9His-hCD40L was passively absorbed at a concentration of 5 μg/mL in PBS on a 96-well microtiter plate overnight at 4° C. […] In a separate 96-well microtiter plate, a fixed amount of 40 nM hCD40-mmH was pre-mixed with one of the following antibodies, at concentrations ranging from 977 pM to 1 μM in PBS+0.5% BSA: (1) CD40×CD40 bispecific antibodies (REGN16431, REGN16432, REGN16634, and REGN16335); (2) parental CD40 mAbs (bivalent antibodies comprising 2 fragment antigen-binding [Fab] arms identical to one of anti-CD40 Fab of CD40×CD40 antibodies); (3) CD40×Irrelevant antibodies (bivalent antibodies that incorporate one Fab arm identical to one of anti-CD40 Fab of CD40×CD40 antibodies and another Fab arm specific to an irrelevant antigen); and (4) human IgG4 with Fc mutation isotype control antibodies (REGN7540 and REGN4513). The fixed concentration of hCD40-mmH was selected to be near the concentration (EC₅₀ value) that generated 50% of the maximal binding to the plate-adhered 9His-hCD40L. After one-hour incubation, the antibody-antigen complexes were transferred to the microtiter plate coated with 9His-hCD40L. After one hour incubation at room temperature, the plates were washed, and plate-bound hCD40-mmH protein was detected with horseradish peroxidase (HRP) conjugated goat anti-c-Myc antibody. The plates were then developed using TMB substrate solution (BD Biosciences) according to the manufacturer's recommended procedure and the absorbance at 450 nm (OD₄₅₀) was measured on a SpectraMax i3×plate reader.
In general terms: An ELISA detects its analyte on a solid surface through an enzyme-linked reagent.

For experiment [3], the target named is T1, human CD40 (hCD40) expressed on cells. Put plainly: cell-based or functional assay.

As usually defined, the EC50 is the concentration that produces a half-maximal response. The IC50 is the concentration needed to halve the response being measured.

T1 sequence (P25942 21-277): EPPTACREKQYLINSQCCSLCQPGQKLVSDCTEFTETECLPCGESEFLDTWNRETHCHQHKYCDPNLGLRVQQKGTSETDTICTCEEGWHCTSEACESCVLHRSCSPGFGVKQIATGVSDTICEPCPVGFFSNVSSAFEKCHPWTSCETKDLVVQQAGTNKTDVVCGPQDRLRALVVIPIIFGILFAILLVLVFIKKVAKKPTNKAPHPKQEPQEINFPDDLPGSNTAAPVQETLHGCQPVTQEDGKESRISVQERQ

B1: 21520P2 (antibody, human IgG4 S228P, kappa, V domains shown)
VH: EVQLVESGGGLVQPGGSLRLSCAASGFTFGSYGMAWVRQAPGKGLEWVSAISGSGDYTNYADSVKRRFTISRDNSKNTLYLQMSSLRAEDTAVYYCAKEKTGTTGYLYSGMDVWGQGTTVTVSS
VL: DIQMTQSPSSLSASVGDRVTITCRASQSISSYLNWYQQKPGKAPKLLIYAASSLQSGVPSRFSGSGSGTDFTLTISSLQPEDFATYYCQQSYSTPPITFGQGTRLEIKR
notes: parental bivalent anti-CD40 mAb; common light chain; also called H4sH21520P2
Turning to B1, in experiment [1], the EC50 was found to be 0.8 nM and the “MFI at 100 nM” value worked out at 2450 MFI. Besides, in experiment [2], the “% Blocking at 1 uM mAb” value stood at 94% and the concentration for half-maximal inhibition (IC50) was found to be 62 nM. In experiment [3], the “EC50, no ligand, Ramos NFkB-luc” value is > 10 nM; the “IC50, 500 pM hCD40L, Ramos NFkB-luc (three highest concentrations excluded, hook effect)” value was determined as 8.06e-11 M; the “Max % activation, no ligand, Ramos NFkB-luc” value (from here on “Max % activation, no ligand”) is 49%; the “Max % inhibition, 500 pM hCD40L, Ramos NFkB-luc” value (from here on “Max % inhibition, 500 pM hCD40L”) was found to be 63%.

B2: 30027P2 (antibody, human IgG4 S228P, kappa, V domains shown)
VH: EVQLVESGGGLVQPGGSLRLSCAASGFTFSSYAMNWVRQAPGKGLEWVSIISGTIGKTYYADSVKGRFTISRDNSKNTLYLQMNSLRGEDTAVYYCAKDTERDITGSPFDYWGQGTLVTVSS
VL: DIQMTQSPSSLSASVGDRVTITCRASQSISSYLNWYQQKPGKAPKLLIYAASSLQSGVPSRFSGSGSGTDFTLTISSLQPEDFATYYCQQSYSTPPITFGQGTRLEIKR
notes: parental bivalent anti-CD40 mAb; common light chain; also called H4sH30027P2
As for B2, in experiment [1], the midpoint of the response, the EC50, lay at 0.45 nM and the “MFI at 100 nM” value was 2620 MFI. Moreover, the “% Blocking at 1 uM mAb” value in experiment [2] amounted to 10%. For the same molecule, in experiment [3], the “EC50 (potentiation), 500 pM hCD40L, Ramos NFkB-luc” value was determined as 8.14e-12 M; the “Max % activation, no ligand” value was determined as 8%; the “Max % inhibition, 500 pM hCD40L” value was -130%.

B3: 21519P2 (antibody, human IgG4 S228P, kappa, V domains shown)
VH: QLQLQESGPGLVRPSETLSLTCSVSGASMNTNNYYWGWIRQPPGKGLEWIGSGYYNGNTYYNPSLKSRVTISVDTSKNQFSLKLNSVTAADTAVYYCARQTPPRIIGSPNIWGQGTMVTVSS
VL: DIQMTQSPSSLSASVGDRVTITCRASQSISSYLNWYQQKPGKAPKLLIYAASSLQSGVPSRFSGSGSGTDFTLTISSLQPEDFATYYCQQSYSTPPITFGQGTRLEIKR
notes: parental bivalent anti-CD40 mAb; common light chain; also called H4sH21519P2
For the molecule B3, in experiment [1], the response was half-maximal at 1.5 nM (EC50) and the “MFI at 100 nM” value is 2410 MFI. For the same molecule, in experiment [2], the “% Blocking at 1 uM mAb” value was 94% and the half-inhibitory concentration (IC50) came out at 61 nM. Further, in experiment [3], the “IC50, 500 pM hCD40L, Ramos NFkB-luc” value was 3.09e-11 M; the “Max % activation, no ligand” value was determined as 13%; the “Max % inhibition, 500 pM hCD40L” value is 88%.

B4: REGN16431 (bispecific antibody, human IgG4 S228P, kappa)
heavy 1: QLQLQESGPGLVRPSETLSLTCSVSGASMNTNNYYWGWIRQPPGKGLEWIGSGYYNGNTYYNPSLKSRVTISVDTSKNQFSLKLNSVTAADTAVYYCARQTPPRIIGSPNIWGQGTMVTVSSASTKGPSVFPLAPCSRSTSESTAALGCLVKDYFPEPVTVSWNSGALTSGVHTFPAVLQSSGLYSLSSVVTVPSSSLGTKTYTCNVDHKPSNTKVDKRVESKYGPPCPPCPAPPVAGPSVFLFPPKPKDTLMISRTPEVTCVVVDVSQEDPEVQFNWYVDGVEVHNAKTKPREEQFNSTYRVVSVLTVLHQDWLNGKEYKCKVSNKGLPSSIEKTISKAKGQPREPQVYTLPPSQEEMTKNQVSLTCLVKGFYPSDIAVEWESNGQPENNYKTTPPVLDSDGSFFLYSRLTVDKSRWQEGNVFSCSVMHEALHNHYTQKSLSLSLGK
heavy 2: EVQLVESGGGLVQPGGSLRLSCAASGFTFGSYGMAWVRQAPGKGLEWVSAISGSGDYTNYADSVKRRFTISRDNSKNTLYLQMSSLRAEDTAVYYCAKEKTGTTGYLYSGMDVWGQGTTVTVSSASTKGPSVFPLAPCSRSTSESTAALGCLVKDYFPEPVTVSWNSGALTSGVHTFPAVLQSSGLYSLSSVVTVPSSSLGTKTYTCNVDHKPSNTKVDKRVESKYGPPCPPCPAPPVAGPSVFLFPPKPKDTLMISRTPEVTCVVVDVSQEDPEVQFNWYVDGVEVHNAKTKPREEQFNSTYRVVSVLTVLHQDWLNGKEYKCKVSNKGLPSSIEKTISKAKGQPREPQVYTLPPSQEEMTKNQVSLTCLVKGFYPSDIAVEWESNGQPENNYKTTPPVLDSDGSFFLYSRLTVDKSRWQEGNVFSCSVMHEALHNRFTQKSLSLSPGK
light: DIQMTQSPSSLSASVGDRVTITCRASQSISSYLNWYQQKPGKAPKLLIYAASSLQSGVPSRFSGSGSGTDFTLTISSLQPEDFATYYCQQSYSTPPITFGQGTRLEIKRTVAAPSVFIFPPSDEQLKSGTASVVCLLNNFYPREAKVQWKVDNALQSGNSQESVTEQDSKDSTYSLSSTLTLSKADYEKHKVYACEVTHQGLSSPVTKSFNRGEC
notes: D1 arm from 21519P2, D2 arm from 21520P2, common light chain; also called CD40xCD40 (21519 x 21520)
Regarding B4, in experiment [1], the response was half-maximal at 1.9 nM (EC50) and the “MFI at 100 nM” value was 3850 MFI. Further, in experiment [2], the “% Blocking at 1 uM mAb” value worked out at 93% and the IC50 is 33 nM. Besides, in experiment [3], the “IC50, 500 pM hCD40L, Ramos NFkB-luc” value turned out to be 8.54e-11 M; the “Max % activation, no ligand” value turned out to be 6%; the “Max % inhibition, 500 pM hCD40L” value is 90%.

B5: REGN16432 (bispecific antibody, human IgG4 S228P, kappa)
heavy 1: EVQLVESGGGLVQPGGSLRLSCAASGFTFSSYAMNWVRQAPGKGLEWVSIISGTIGKTYYADSVKGRFTISRDNSKNTLYLQMNSLRGEDTAVYYCAKDTERDITGSPFDYWGQGTLVTVSSASTKGPSVFPLAPCSRSTSESTAALGCLVKDYFPEPVTVSWNSGALTSGVHTFPAVLQSSGLYSLSSVVTVPSSSLGTKTYTCNVDHKPSNTKVDKRVESKYGPPCPPCPAPPVAGPSVFLFPPKPKDTLMISRTPEVTCVVVDVSQEDPEVQFNWYVDGVEVHNAKTKPREEQFNSTYRVVSVLTVLHQDWLNGKEYKCKVSNKGLPSSIEKTISKAKGQPREPQVYTLPPSQEEMTKNQVSLTCLVKGFYPSDIAVEWESNGQPENNYKTTPPVLDSDGSFFLYSRLTVDKSRWQEGNVFSCSVMHEALHNHYTQKSLSLSLGK
heavy 2: B4 heavy 2
light: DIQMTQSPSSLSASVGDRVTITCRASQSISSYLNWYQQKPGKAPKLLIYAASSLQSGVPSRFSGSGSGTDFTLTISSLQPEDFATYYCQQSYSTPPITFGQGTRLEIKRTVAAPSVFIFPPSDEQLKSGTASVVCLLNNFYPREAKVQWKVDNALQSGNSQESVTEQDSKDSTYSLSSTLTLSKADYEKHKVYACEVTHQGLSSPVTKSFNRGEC
notes: D1 arm from 30027P2, D2 arm from 21520P2, common light chain; also called CD40xCD40 (30027 x 21520)
In the case of B5, in experiment [1], a half-maximal effect (EC50) was put at 1.1 nM and the “MFI at 100 nM” value came to 3850 MFI. Besides, in experiment [2], the “% Blocking at 1 uM mAb” value was determined as 95% and the IC50 worked out at 32 nM. In experiment [3], the “IC50, 500 pM hCD40L, Ramos NFkB-luc” value came out at 4.92e-11 M; the “Max % activation, no ligand” value was found to be 4%; the “Max % inhibition, 500 pM hCD40L” value worked out at 94%.
